Measured values taken from US20090291088A1, “THERAPEUTIC COMBINATIONS OF ANTI-IGF-1R ANTIBODIES AND OTHER COMPOUNDS” (Biogen Idec MA Inc., priority 2008, published 2009).
Changes are numbered by the printed parent chain. Like-named read-outs stand apart in the source and are kept apart here.

B1: M14-C03: anti-IGF-1R antibody, allosteric blocker of IGF-1 and IGF-2 (antibody, V domains shown)
VH: EVQLLESGGGLVQPGGSLRLSCAASGFTFSKYMMSWVRQAPGKGLEWVSYISPSGGLTWYADSVKGRFTISRDNSKNTLYLQMNSLRAEDTAVYYCARDGARGYGMDVWGQGTTVTVSS
VL: DIQMTQSPATLSLSPGERATLSCRASQSVSSYLAWYQQKPGQAPRLLIYDASNRATGIPARFSGSGSGTDFTLTISSLEPEDFAVYYCQQRSNWPPEVTFGPGTKVDIK
modifications: Antibody variable heavy chain sequence; Antibody variable light chain sequence
B2: Fab M12-E01: human anti-human IGF-1R Fab from phage display library; VH SEQ ID NO:4, VL SEQ ID NO:68 (antibody, V domains shown)
VH: EVQLLESGGGLVQPGGSLRLSCAASGFTFSPYSMLWVRQAPGKGLEWVSSIGSSGGSTRYADSVKGRFTISRDNSKNTLYLQMNSLRAEDTAMYYCARVRGILHYDILIGRNLYYYYMDVWGKGTTVTVSS
VL: QYELTQPPSVSEAPRQRVTISCSGSSSNIGNNAINWYQQLPGKPPKLLIYYDDLLPSGVSDRFSGSKSGTSGSLAISGLQSEDEADYYCAAWDDNLNGVIFGGGTKLTVL
modifications: Antibody variable heavy chain sequence; Antibody variable light chain sequence
B3: 20C8.3B8: murine anti-human IGF-1R monoclonal antibody from hybridoma; VH SEQ ID NO:43, VL SEQ ID NO:103 (antibody, V domains shown)
VH: DVQLQESGPDLVKPSQSLSLTCTVTGYSITSGYSWHWIRQFPGNKLEWMGYIHYSGGTNYNPSLKSRISITRDTSKNQFFLQLNSVTTEDTATYYCARSGYGYRSAYYFDYWGQGTTVTVSS
VL: DIVLTQSPASLAVSLGQRATISCRASKSVSTSAYSYMHWYQQKPGQPPKLLIYLASNLESGVPARFSGSGSGTDFTLNIHPVEEEDAATYYCQHSRELPYTFGGGTKLEIK
modifications: Antibody variable heavy chain sequence; Antibody variable light chain sequence
B4: 20D8.24B11: murine anti-human IGF-1R monoclonal antibody from hybridoma; VH SEQ ID NO:53, VL SEQ ID NO:103 (antibody, V domains shown)
VH: B3 VH with V118L
VL: B3 VL
modifications: Antibody variable heavy chain sequence; Antibody variable light chain sequence

Columns and labels:
IGF-1R phosphorylation = target: T1, IGF-1R phosphorylation (Homo sapiens, UniProt P08069); assay: Inhibition of IGF-1 and IGF-2 mediated IGF-1R phosphorylation in MCF-7 cells (ELISA); type: cell-based; conditions: for Inhibition of IGF-1R Phosphorylation IGF-1 / Inhibition of IGF-1R Phosphorylation IGF-2: Fabs, MCF-7; for Inhibition of IGF-1R Phosphorylation IGF-1: IGF-1 stimulated; for Inhibition of IGF-1R Phosphorylation IGF-2: IGF-2 stimulated; for Inhibition of IGF-1R.pTyr IGF-1 / Inhibition of IGF-1R.pTyr IGF-2: murine monoclonal antibodies
T1 construct: wild type IGF-1R expressed on MCF-7 tumor cells; endogenous in cells; host or cells: MCF-7
Method: Cell lines: IGF1R expressing human breast carcinoma cell line MCF-7 (NCI) were maintained at 37° C. and 5% CO2 in MEM eagle (ATCC) containing 10% FBS, 1× non-essential amino acids, 2 mM L-glutamine, 1 mM sodium pyruvate and 1000 U/ml penicillin and streptomycin. Cells were sub-cultured twice weekly for maintenance and assay, and used with a maximum of 12 passages.
MCF-7 cells were plated in 2 ml growth media at 2×10^5 to 4.0×10^5 cells/well in Ploy-D-Lysine coated 12 well plates (BD Biosciences, #35-6470) and cultured at 37° C., 5% CO2. At 48 hours, media removed and cells serum starved overnight at 37° C., 5% CO2 Serum free media was removed and control or test antibodies at indicated concentration were added in 350 ul of fresh serum free media and incubated for 1 hour at room temperature, or alternately at 37° C. Fabs were tested at 200 nM, 20 nM and 2 nM concentration and the mAbs were tested at 67, 6.7 and 0.67 nM. The commercial anti-IGF-1R control antibody used was αIR3 (EMD biosciences, Oncogene Research products, #D27249). […] Ligand was incubated at […] for 37° C. antibody experiments. Cells were lysed in 1× cell lysis buffer (Cell Signal Technologies, #9803) with 1 mM PMSF for 1 hour at room temperature.
Cell lysates were added to ELISA plates pre-coated with IGF-1Rp antibody (Clone 1-2, Biosource International, #AHR0361) and incubated for 2 hours. Following which plates were washed and the plate bound phosphorylated receptor was detected with the biotin labeled anti-phosphotyrosine antibody 4G10 (Catalog #16-103, Upstate Cell Signaling Solutions (Lake Placid, N.Y. (now part of Millipore, Concord, Mass. (USA)) and streptavidin-HRP (BD Pharmingen, #554066). Assay is developed by addition of TMB substrate (Kierkegaard & Perry, #50-76-00) and color stopped by addition of […] (LabChem, Cat#LC25830-1). Optical density is measured at 450 nm using a Molecular Devices plate reader and percent inhibition over the ligand control is calculated for each antibody-ligand sample.
The effect of human anti-IGF-1R antibodies on IGF-1R signaling was evaluated using MCF-7 cells (human breast adenocarcinoma cells).

[1] = target: T2, IGF-1R expressed on MCF-7 cells (Homo sapiens, UniProt P08069); assay: Flow cytometry binding to wild type IGF-1R on MCF-7 tumor cells
T2 construct: wild type IGF-1R expressed on MCF-7 tumor cells; endogenous in cells; host or cells: MCF-7
Method: The ability of Fabs to bind to the wild type IGF-1R was determined by flowcytometry using MCF-7 tumor cell line.
MCF-7 cells (Human Breast Adenocarcinoma from NCI) were split 24 hours prior to the setup of the assay to obtain 70% confluent monolayer. Routinely, MCF-7 cell line was maintained within 20 passages. Cells were lifted with cell dissociation buffer (Gibco catalog #13151-014), counted, washed and adjusted to 1×10^6 cells/ml and one ml of cells were then added to each tube (12×75 mm tube Falcon catalog# 352054). Cells were pelleted and supernatant removed by centrifugation at 1200 rpm for 5 min and 100 μl of diluted antibodies were then added to the cell pellet. Purified Fabs were tested at a starting concentration of either 210 or 60 μg/ml with 1:3 dilutions in FACS buffer, down to 0.001 μg/ml. FACS buffer used throughout the assay was PBS (without Ca++/Mg++) containing 1% BSA (Sigma catalog# A-7906; Sigma-Aldrich Corp. (St. Louis, Mo., USA)) and 0.1% Sodium Azide (Sigma catalog #S2002). As a positive control IR3 a murine antibody (Ab-1; Calbiochem #GR11L) was used. Samples were allowed to incubate on ice for 1 hour and 15 minutes then were washed with 2 ml FACS buffer and centrifuged at 1200 rpm for 5 minutes at 4° C. The supernatant was aspirated and 100 μl of the secondary detection antibody was added to each corresponding tube in FACS buffer. Samples were then incubated for 30 minutes on ice, in the dark. Cells were washed as described above, then, re-suspended in […] FACS buffer per tube/sample.
Cells were stained for live cell determination with Propidium Iodide staining solution (PI for dead cell exclusion; BD Pharmingen catalog# 51-66211E or 556463; use at 1:500 final in FACS buffer). […]
Once samples have been run and geometric means determined, antibody concentration (X axis) vs. geometric mean (Y axis) was graphed to the log 10, using Graphpad Prism (Prism Graph) graphing program. […]
The binding activity of human antibodies to wild type IGF-1R expressed on tumor cells was determined by flow cytometry. […]

[2] = murine monoclonal antibodies, read-out: Binding (EC50nM) Tumor MCF-7

Molecule	Inhibition of IGF-1R Phosphorylation IGF-1 (IGF-1R phosphorylation)	Inhibition of IGF-1R Phosphorylation IGF-2 (IGF-1R phosphorylation)	EC50 ([1]; purified Fabs, read-out: FACS Binding MCF-7 EC50nM) [nM]	EC50 [1, 2] [nM]	Inhibition of IGF-1R.pTyr IGF-1 (IGF-1R phosphorylation)	Inhibition of IGF-1R.pTyr IGF-2 (IGF-1R phosphorylation)
B1	++ (>30%@1ug/ml)	++ (>30%@1ug/ml)				
B2	++ (>30%@1ug/ml)	+ (>30%@10 ug/ml)	7.4			
B3				1.23	+++ (>30%@0.1 μg/ml)	++ (>30%@1 μg/ml)
B4				1.3	+++ (>30%@0.1 μg/ml)	++ (>30%@1 μg/ml)
